B1: RGS7-Gβ5 signaling complex (complex)
chain 1: MAQGNNYGQTSNGVADESPNMLVYRKMEDVIARMQDEKNGIPIRTVKSFLSKIPSVFSGSDIVQWLIKNLTIEDPVEALHLGTLMAAHGYFFPISDHVLTLKDDGTFYRFQTPYFWPSNCWEPENTDYAVYLCKRTMQNKARLELADYEAESLARLQRAFARKWEFIFMQAEAQAKVDKKRDKIERKILDSQERAFWDVHRPVPGCVNTTEVDIKKSSRMRNPHKTRKSVYGLQNDIRSHSPTHTPTPETKPPTEDELQQQIKYWQIQLDRHRLKMSKVADSLLSYTEQYLEYDPFLLPPDPSNPWLSDDTTFWELEASKEPSQQRVKRWGFGMDEALKDPVGREQFLKFLESEFSSENLRFWLAVEDLKKRPIKEVPSRVQEIWQEFLAPGAPSAINLDSKSYDKTTQNVKEPGRYTFEDAQEHIYKLMKSDSYPRFIRSSAYQELLQAKKK
chain 2: GLHENETLASLKSEAESLKGKLEEERAKLHDVELHQVAERVEALGQFVMKTRRTLKGHGNKVLCMDWCKDKRRIVSSSQDGKVIVWDSFTTNKEHAVTMPCTWVMACAYAPSGCAIACGGLDNKCSVYPLTFDKNENMAAKKKSVAMHTNYLSACSFTNSDMQILTASGDGTCALWDVESGQLLQSFHGHGADVLCLDLAPSETGNTFVSGGCDKKAMVWDMRSGQCVQAFETHESDINSVRYYPSGDAFASGSDDATCRLYDLRADREVAIYSKESIIFGASSVDFSLSGRLLFAGYNDYTINVWDVLKGSRVSILFGHENRVSTLRVSPDGTAFCSGSWDHTLRVWA
B2: human GPR158 receptor (receptor, UniProt Q5T848 24-1215, looked up)
chain: ASRDPQGRPDSPRERTPKGKPHAQQPGRASASDSSAPWSRSTDGTILAQKLAEEVPMDVASYLYTGDSHQLKRANCSGRYELAGLPGKWPALASAHPSLHRALDTLTHATNFLNVMLQSNKSREQNLQDDLDWYQALVWSLLEGEPSISRAAITFSTDSLSAPAPQVFLQATREESRILLQDLSSSAPHLANATLETEWFHGLRRKWRPHLHRRGPNQGPRGLGHSWRRKDGLGGDKSHFKWSPPYLECENGSYKPGWLVTLSSAIYGLQPNLVPEFRGVMKVDINLQKVDIDQCSSDGWFSGTHKCHLNNSECMPIKGLGFVLGAYECICKAGFYHPGVLPVNNFRRRGPDQHISGSTKDVSEEAYVCLPCREGCPFCADDSPCFVQEDKYLRLAIISFQALCMLLDFVSMLVVYHFRKAKSIRASGLILLETILFGSLLLYFPVVILYFEPSTFRCILLRWARLLGFATVYGTVTLKLHRVLKVFLSRTAQRIPYMTGGRVMRMLAVILLVVFWFLIGWTSSVCQNLEKQISLIGQGKTSDHLIFNMCLIDRWDYMTAVAEFLFLLWGVYLCYAVRTVPSAFHEPRYMAVAVHNELIISAIFHTIRFVLASRLQSDWMLMLYFAHTHLTVTVTIGLLLIPKFSHSSNNPRDDIATEAYEDELDMGRSGSYLNSSINSAWSEHSLDPEDIRDELKKLYAQLEIYKRKKMITNNPHLQKKRCSKKGLGRSIMRRITEIPETVSRQCSKEDKEGADHGTAKGTALIRKNPPESSGNTGKSKEETLKNRVFSLKKSHSTYDHVRDQTEESSSLPTESQEEETTENSTLESLSGKKLTQKLKEDSEAESTESVPLVCKSASAHNLSSEKKTGHPRTSMLQKSLSVIASAKEKTLGLAGKTQTAGVEERTKSQKPLPKDKETNRNHSNSDNTETKDPAPQNSNPAEEPRKPQKSGIMKQQRVNPTTANSDLNPGTTQMKDNFDIGEVCPWEVYDLTPGPVPSESKVQKHVSIVASEMEKNPTFSLKEKSHHKPKAAEVCQQSNQKRIDKAEVCLWESQGQSILEDEKLLISKTPVLPERAKEENGGQPRAANVCAGQSEELPPKAVASKTENENLNQIGHQEKKTSSSEENVRGSYNSSNNFQQPLTSRAEVCPWEFETPAQPNAGRSVALPASSALSANKIAGPRKEEIWDSFKV

Key:
[1] = target: B2; assay: cryo-EM structure
[2] = target: the molecule itself; assay: cryo-EM structure

Binder	stoichiometry N [1]	stoichiometry N [2]
B1	1 RGS7-Gβ5 complex per GPR158 homodimer	
B2		2
